Laboratory results from paper PMC5557964.

Target: citrullinated fibronectin N-terminal 30 kDa fragment (treated with PAD2 or PAD4)
Experiment: ELISA; FN N-terminal 30 kDa fragment coated o/n on 96-well DNA-BIND plates (3 µg/cm^3, +4 °C), blocked with BSA, citrullinated on the plate by PAD2 or PAD4 (2.4 U/ml, o/n, +37 °C) or left as control; integrin αVβ3 5 µg/ml for 1 h at room temperature in Delfia assay buffer; detected with anti-αV antibody L230 and Eu-labelled anti-mouse antibody, time-resolved fluorescence; BSA wells as background

reduction of binding against the control FN fragment: > 50%
Substance: recombinant integrin αVβ3 ectodomain (from UniProt P06756 31-992; P05106 27-718) (receptor)
